Results on one molecule are retold here after patent publication US20190382503A1 (published 2019).

Test [1] addresses T1, human 5T4 on cells (human, UniProt Q13641 32-420).
T1 construct: Human 5T4 on transfected cells (CHO-K1, CT26, B16) or endogenous on human tumour lines; the cell line is named under assay; also called trophoblast glycoprotein; TPBG
T1 sequence: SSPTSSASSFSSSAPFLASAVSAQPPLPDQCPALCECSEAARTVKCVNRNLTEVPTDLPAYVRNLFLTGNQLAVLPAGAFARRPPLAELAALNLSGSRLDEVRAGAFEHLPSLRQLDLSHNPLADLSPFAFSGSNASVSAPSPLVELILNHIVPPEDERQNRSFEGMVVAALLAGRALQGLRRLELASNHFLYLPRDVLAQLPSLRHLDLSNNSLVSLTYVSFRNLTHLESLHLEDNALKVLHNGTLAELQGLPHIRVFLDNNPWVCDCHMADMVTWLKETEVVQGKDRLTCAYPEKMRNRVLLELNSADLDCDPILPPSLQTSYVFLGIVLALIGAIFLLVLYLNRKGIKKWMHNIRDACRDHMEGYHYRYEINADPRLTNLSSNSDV
Description: flow cytometry, CT26-hu5T4^int cells, streptavidin-PE, normalized MFI of 2 pooled experiments. Here is the method:
(§1) Biotinylation: In order to detect ALG.APV-210 binding to 5T4-expressing cell lines, ALG.APV-210 was first biotinylated. The quality of the biotinylated protein and the impact on binding to its targets was assessed using ELISA.
(§2) FACS staining and analysis of 5T4-expressing cell lines: Prior to the FACS staining, all cell lines were characterized for their 5T4 expression levels using a receptor density kit (Quantum Simply Cellular, anti-human IgG, Bangs Laboratories, Inc). Adherent cell lines were cultured according to their supplier's instructions and were harvested from their cell culture flasks using Trypsin/EDTA, counted in R10 medium in a Burker chamber, and diluted in FACS buffer (PBS+0.5% BSA, 0.05% NaN₃) to a concentration of 4×10⁶ cells/mL. 50 μL (0.20×10⁶) of cell solution was added to a 96-well FACS staining plate (Falcon #351190). Cells were incubated for 20 min in 4° C. with 50 μL of the biotinylated ALG.APV-210 (2× final concentration). […] Cells were analysed for ALG.APV-210 binding using flow cytometry (FACSVerse) by gating on single cells. MFI values (secondary antibody only subtracted) from 1 out of 2 independent experiments, as well as normalized data and EC₅₀-values of pooled data from 2 experiments were determined and plotted using GraphPad Prism 7, non-linear regression log (agonist) vs. normalized response-variable slope.

The target of test [2] is T1, human 5T4 on cells. Description: flow cytometry, HCT-116 cells, streptavidin-PE, normalized MFI of 2 pooled experiments. How it is done: as §2, with “concentration). The antibodies were added in a serial dilution starting at 20 μg/mL titrating down in a 12 step 1/2 dilution down to 0.010 μg/mL.” for “concentration).”
For orientation: Flow cytometry measures light scatter and fluorescence of single cells or particles in a stream.

Test [3] has as its target T1, human 5T4 on cells. Nature of the test: flow cytometry, JAR cells, streptavidin-PE, normalized MFI of 2 pooled experiments. Here is the method: as §1, §2
For test [4], the target named is T1, human 5T4 on cells. Nature of the test: flow cytometry, CT26-hu5T4^low cells, streptavidin-PE, normalized MFI of 2 pooled experiments. Here is the method: as §2, with “concentration). The antibodies were added in a serial dilution starting at 20 μg/mL titrating down in a 12 step 1/2 dilution down to 0.010 μg/mL.” for “concentration).”
For test [5], the target named is T1, human 5T4 on cells. Nature of the test: flow cytometry, JEG cells, streptavidin-PE, normalized MFI of 2 pooled experiments. How it is done: as §2, with “concentration). The antibodies were added in a serial dilution starting at 20 μg/mL titrating down in a 12 step 1/2 dilution down to 0.010 μg/mL.” for “concentration).”

B1: biotinylated ALG.APV-210 (bispecific antibody)
chain: EVQLLESGGGLVQPGGSLRLSCAASGFTFSHGSMYWVRQAPGKGLEWVSSISSGSGSTYYADSVKGRFTISHDNSKNTLYLQMNSLRAEDTAVYYCARSSYYGSYYSIDYWGQGTLVTVSSGGGGSGGGGSGGGGSGGGGSDIQMTQSPSSLSASVGDRVTITCRASQSISSYLNWYQQKPGKAPKLLIYAASSLQSGVPSRFSGSGSGTDFTLTISSLQPEDFATYYCQQYYDNLPTFGQGTKLEIKEPKSSDKTHTCPPCPAPEAAGAPSVFLFPPKPKDTLMISRTPEVTCVVVDVSHEDPEVKFNWYVDGVEVHNAKTKPREEQYNSTYRVVSVLTVLHQDWLNGKEYKCAVSNKALPAPIEKTISKAKGQPREPQVYTLPPSRDELTKNQVSLTCLVKGFYPSDIAVEWESNGQPENNYKTTPPVLDSDGSFFLYSKLTVDKSRWQQGNVFSCSVMHEALHNHYTQKSLSLSPGSGGGGSGGGGSGGGGSPSEVQLLESGGGLVQPGGSLRLSCAASGFTFSSYAMSWVRQAPGKCLEWVSAISGSGGSTYYADSVKGRFTISRDNSKNTLYLQMNSLRAEDTAVYYCARYYGGYYSAWMDYWGQGTLVTVSSGGGGSGGGGSGGGGSGGGGSDIQMTQSPSSLSASVGDRVTITCRASQSISSFLNWYQQKPGKAPKLLIYAASSLQSGVPSRFSGSGSGTDFTLTISSLQPEDSATYYCQQTYGYLHTFGCGTKLEIKR
modifications: biotinylated (sites not given)
On to B1, for which the half-maximal effective concentration (EC50) (in general, the concentration needed to bring the measured effect to its halfway point) in test [1] was 12 nM; in test [2], 16 nM; in test [3] it was 9 nM; in test [4], 11 nM; in test [5], 8 nM.
